Assay results taken from paper PMC9637899.
pKd: −log10 of the molar value. Several values for one entry are separate records, joined by “and”; a condition that tells them apart may be missing. Identical values can stand only once.

Experiments:
[1] = biological target: activated c-Myc-C1s–CCP1–CCP2–SP_(S632A) (human) (UniProt P09871); assay: AlphaScreen or HTRF; competition: 50 nM GST-ElpQ on glutathione donor beads and 500 nM activated c-Myc-C1s–CCP1–CCP2–SP_(S632A) on anti-c-Myc acceptor beads, 12-point twofold dilution of untagged competitor; HBS-T Ca2+, 1 h at room temperature; IC50 taken to approximate KD (Cheng–Prusoff)
Sequence of activated c-Myc-C1s–CCP1–CCP2–SP_(S632A) (human) (P09871 16-688 S632A): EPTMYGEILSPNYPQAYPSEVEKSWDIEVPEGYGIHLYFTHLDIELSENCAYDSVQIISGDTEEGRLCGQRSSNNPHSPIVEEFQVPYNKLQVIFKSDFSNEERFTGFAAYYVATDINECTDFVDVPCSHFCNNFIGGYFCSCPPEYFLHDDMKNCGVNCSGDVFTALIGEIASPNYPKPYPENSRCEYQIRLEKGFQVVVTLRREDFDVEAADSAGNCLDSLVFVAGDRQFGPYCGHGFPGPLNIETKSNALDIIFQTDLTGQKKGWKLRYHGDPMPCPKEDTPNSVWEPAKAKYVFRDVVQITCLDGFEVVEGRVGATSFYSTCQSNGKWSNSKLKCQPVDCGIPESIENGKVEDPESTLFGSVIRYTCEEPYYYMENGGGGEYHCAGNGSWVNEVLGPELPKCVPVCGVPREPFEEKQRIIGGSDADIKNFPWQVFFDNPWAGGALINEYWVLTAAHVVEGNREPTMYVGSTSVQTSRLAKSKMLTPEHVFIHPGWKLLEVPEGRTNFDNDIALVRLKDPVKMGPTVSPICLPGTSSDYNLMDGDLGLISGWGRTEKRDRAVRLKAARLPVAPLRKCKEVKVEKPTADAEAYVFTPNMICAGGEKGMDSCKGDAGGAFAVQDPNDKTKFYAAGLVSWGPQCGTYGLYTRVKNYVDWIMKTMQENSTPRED

[2] = biological target: ElpQ_(181–343) (B. burgdorferi); assay: SPR; Elp truncation amine-coupled to a CMD200 chip; multicycle twofold injection series of C1s enzyme or activated C1s–CCP1–CCP2–SP constructs from 200 nM; HBS-T Ca2+ (10 mM Hepes pH 7.3, 140 mM NaCl, 0.005% Tween-20, 5 mM CaCl2), 30 ul/min; K_(D, kin) from a kinetic and K_(D, ss) from a steady-state 1:1 (Langmuir) fit; triplicate
[3] = biological target: ElpB_(111–378) (B. burgdorferi); assay: as above
[4] = biological target: ElpB_(182–378) (B. burgdorferi) (UniProt H7C7R2); assay: as above
[5] = biological target: activated C1s–CCP1–CCP2–SP (human) (UniProt P09871)
Sequence of activated C1s–CCP1–CCP2–SP (human) (P09871 292-688): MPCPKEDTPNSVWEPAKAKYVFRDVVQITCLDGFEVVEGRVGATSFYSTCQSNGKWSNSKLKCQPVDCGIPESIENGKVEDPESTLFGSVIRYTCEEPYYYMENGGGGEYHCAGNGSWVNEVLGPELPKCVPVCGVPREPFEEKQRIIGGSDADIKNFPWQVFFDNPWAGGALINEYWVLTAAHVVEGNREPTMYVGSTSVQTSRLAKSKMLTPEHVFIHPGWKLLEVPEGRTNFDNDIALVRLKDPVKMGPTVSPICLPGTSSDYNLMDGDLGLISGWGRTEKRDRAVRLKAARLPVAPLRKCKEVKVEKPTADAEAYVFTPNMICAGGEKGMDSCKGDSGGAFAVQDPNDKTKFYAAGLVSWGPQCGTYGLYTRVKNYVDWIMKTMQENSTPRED

| Substance | pKd [1] | pKd [2] | also measured |
| --- | --- | --- | --- |
| ElpB_(182–378) (from UniProt H7C7R2 182-378) (domain or fragment) | 7.35 |  |  |
| complement component C4 (natural protein) | 6.13 |  |  |
| activated C1s–CCP1–CCP2–SP (from UniProt P09871 292-688) (domain or fragment) |  | 6.68 |  |
| purified full-length activated C1s enzyme |  | 7.77 and 7.51 | pKd [3]: 7.68 and 7.46; pKd [4]: 7.33 and 7.07 |
| ElpQ_(181–343) (domain or fragment) | 6.96 |  | IC50 of inhibition of C4 cleavage by 6.25 nM activated C1s–CCP1–CCP2–SP, SDS-PAGE densitometry, ElpQ (181–343) 25 to 0.20 uM; blocks m9 with m17 [5]: 3600 nM |
| ElpQ_(19–343) (natural protein) | 6.72 |  |  |
| C1s CCP1–CCP2–SP CCPE (from UniProt P09871) (domain or fragment) |  | 6.43 | pKd [4]: 6.24 |
